# Laboratory results from patent US20070093415A1.
# Read-outs that look alike come from different tables or passages of the source.
# Assays:
# [1] = target: Aβ1-40 amyloid (amyloid form of the Aβ1-40 peptide); test: ELISA on immobilized Aβ1-40 amyloid, anti-Thio detection
# [2] = target: Aβ1-40 amyloid (amyloid form of the Aβ1-40 peptide); test: as above; remark: listed apart in the source
# Thio (recombinant thioredoxin without the Aβ-peptide binding sequence), sequence (P0AA25 2-109): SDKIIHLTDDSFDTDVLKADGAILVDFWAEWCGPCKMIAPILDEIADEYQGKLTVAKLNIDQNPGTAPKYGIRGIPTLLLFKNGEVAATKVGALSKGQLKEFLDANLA
substance,measurement,setting,value
Thio (recombinant thioredoxin without the Aβ-peptide binding sequence) (from UniProt P0AA25 2-109),concentration below which no binding was seen,[1],> 200 µM
same,concentration below which no binding was seen,[2],> 100 µM
